Data from paper PMC6978347.

Legend:
[1] = biological target: polymerization-deficient p62^1–102 (D69A/D73A) (human) (UniProt Q13501); assay: ITC; VP-ITC, 25 °C, 10 mM HEPES pH 7.5, 150 mM NaCl; p62 D69A/D73A in the cell (5–20 μM), partner PB1 domain in the syringe (25–100 μM); one-site model; mean of three measurements
[2] = biological target: p62 PB1 (Homo sapiens) (UniProt Q13501); settings: cited from earlier work

Row | Substance | Kd [1] [nM] | Kd [2] [nM]
1 | NBR1^1–85 (human NBR1–PB1) (from UniProt Q14596 1-85) (domain or fragment) | 12.6 | –
2 | PKCζ^11–101 (pKCζ–PB1) (from UniProt Q05513 11-101) (domain or fragment) | 8.9 | –
3 | p62 PB1 (from UniProt Q13501) | – | 6
